± gives the uncertainty stated by the source.

This data set can be described thus: amyloid nucleation score (Sup35N fusion, yeast selection) (log enrichment); library NNK3; higher = more nucleation; inactive = no reads after selection. The method, boiled down: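 Yeast lacking psi expressed peptides of 20 random codons fused to Sup35N, received 100 μM copper sulfate for 24 hours, and were then grown for 7 days at 30°C on medium lacking adenine and uracil. Illumina sequencing of input and output plasmid inserts provided the reads. Nucleation scores are DiMSum log enrichments of output over input, centred on the mode of non-aggregating sequences. Any sequence with under 100 input reads was excluded.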
As for NVNEQSHPM, the amyloid nucleation score result is “inactive”.

With LNYDSSTRLNVLW, the amyloid nucleation score result is “inactive”.

With NHSSYG, the amyloid nucleation score entry is “inactive”.

Substance CRVVDFG registered an amyloid nucleation score of -0.107 ± 0.49.

As for IRNERRQGSCGIIISRNCYV, the amyloid nucleation score result was “inactive”.

In the case of DRKNCRRSHVWVMRMGNWYC, the amyloid nucleation score result is “inactive”.

On to EVCNVVTCGNLFKVTIYNSQ, for which the amyloid nucleation score was 2.43 ± 0.068.

Turning to YNNTVCL, the amyloid nucleation score result is “inactive”.

For the substance AIELIFVLWAFAHCAPCFEL, the amyloid nucleation score result was “inactive”.

As for GATVLLSNFSVCPHMARSSG, the amyloid nucleation score result was “inactive”.

Take ECEWDMVH: the amyloid nucleation score entry is “inactive”.

For the substance RVSGEMFASSL, the amyloid nucleation score result was “inactive”.

For the substance LCKDLDTSCVGSFYIFRQKG, the amyloid nucleation score result was “inactive”.

Regarding FFSSPFMFPASGATVPQRFQ, the amyloid nucleation score result was “inactive”.

Substance WSSFPFCSRVYVQTWIDLTN returned an amyloid nucleation score of 1.52 ± 0.14.

With NGSYIFPSNCYSKIAIVMVG, the amyloid nucleation score is 0.706 ± 0.26.

RIYKNRSSSGILLNERFPGL had an amyloid nucleation score of -0.46 ± 1.3.

Regarding VWKMRDTKHMGLLWLLWFIE, the amyloid nucleation score result is “inactive”.

Consider FCGKLSCCFIRLAELFLVGK, for which the amyloid nucleation score entry was “inactive”.

For the substance NFTMNLIIGCF, the amyloid nucleation score turned out to be 1.3 ± 0.12.

As to QIKKAINHHKYFW, the amyloid nucleation score result is “inactive”.

Regarding FIFHNHVFFDLSNMFRYYVY, the amyloid nucleation score amounted to 1.92 ± 0.087.

IVEDVGYLHLYRIQFGGVSE: the amyloid nucleation score result was “inactive”.

Turning to SSAIYVMRLPQCMAECSRPR, the amyloid nucleation score entry was “inactive”.

Turning to SEGDLKYVW, the amyloid nucleation score result is “inactive”.

For the substance MLSDSLHHSSNIVTLVTRGS, the amyloid nucleation score result is “inactive”.

FGWAWPFFTKVHHTSTV: the amyloid nucleation score result is “inactive”.

As to TMGVSLHHIKGPFWSVIYCI, the amyloid nucleation score was 0.481 ± 0.32.

As to YRQRWSRLCAGQSLYNCGKC, the amyloid nucleation score entry is “inactive”.

As for SNPHIILID, the amyloid nucleation score entry is “inactive”.

Turning to EIRKQHCCHS, the amyloid nucleation score entry was “inactive”.

With FNERDWCNSSGSSHVLWSSM, the amyloid nucleation score result is “inactive”.

For HAVYL, the amyloid nucleation score entry was “inactive”.

Turning to MCSAEA, the amyloid nucleation score result was “inactive”.

IYLNFNKILLMILQIQLWGN: the amyloid nucleation score is -0.19 ± 0.64.

Take FFRFRKCAM: the amyloid nucleation score result is “inactive”.

As for NNFMYPELAPSARRCAWYCG, the amyloid nucleation score result is “inactive”.

In turn, SYMGHV had an amyloid nucleation score of 0.506 ± 0.43.

In the case of LLGVLDSLMRRFMNHINETG, the amyloid nucleation score result was “inactive”.

For the substance SGSKKCAFRHVRIHFRLTAG, the amyloid nucleation score result was “inactive”.

For the substance VNNPVLFFQ, the amyloid nucleation score entry was “inactive”.

Consider LKCDWC, for which the amyloid nucleation score result was “inactive”.

With TRKDDFDLSGCSR, the amyloid nucleation score entry is “inactive”.

As for NCLFWSEVRFHVMCFCDWLL, the amyloid nucleation score entry is “inactive”.

KVLVFGFQCFIL displayed an amyloid nucleation score of 1.56 ± 0.08.

As for SGLKVCYNYEDGRMVSLGYH, the amyloid nucleation score result is “inactive”.

For the substance SLFSGVYSFYY, the amyloid nucleation score entry is “inactive”.

TLWYSYHINVPYCL: the amyloid nucleation score result is “inactive”.

With NWTQSIFVGGQRDRLVISRT, the amyloid nucleation score entry was “inactive”.

In the case of NTRMDNLTNAWRAQYALSP, the amyloid nucleation score entry was “inactive”.

Turning to YSLRVHSAYIVVKYII, the amyloid nucleation score entry was “inactive”.

With WVQPSYRPSCVLYRSNNNNR, the amyloid nucleation score entry was “inactive”.

GNEIGITGVYGLHRSAKVVV: the amyloid nucleation score result was “inactive”.

As to KRLVGLYIYTGMWLKLLQLV, the amyloid nucleation score entry is “inactive”.

With GWAMTWNDVYLSYSIYSHSK, the amyloid nucleation score is 0.514 ± 0.4.

Turning to VNVDLPLARNHWYPSPIYMV, the amyloid nucleation score was -0.654 ± 0.84.

As to YGTMFLENTYNPFPVGSHVF, the amyloid nucleation score result is “inactive”.

As for MHATIMVVDRESFHGLGWKS, the amyloid nucleation score entry was “inactive”.

For APYNFKDYCISGIWSGYIMF, the amyloid nucleation score result is “inactive”.

Turning to MYFVKMLMGVILLVNFSRW, the amyloid nucleation score entry is “inactive”.

With ANYVCKNAVYVMQNNGLVH, the amyloid nucleation score result was “inactive”.

Take WCQCRKLFWVYAHGEHFSSC: the amyloid nucleation score turned out to be 1.09 ± 0.12.

Take TDCFGLMSSALP: the amyloid nucleation score entry is “inactive”.

DGNLWMKSVCCWTKVFIELL: the amyloid nucleation score came to 1.37 ± 0.12.

For YYNDSPAFHLRVR, the amyloid nucleation score entry is “inactive”.

Take SSVKRYLAVRWCSESMHTRW: the amyloid nucleation score result is “inactive”.

Regarding EHVWHRCTKVN, the amyloid nucleation score entry was “inactive”.

In the case of RFQYLNYCMFMVRCGHYDTS, the amyloid nucleation score result is “inactive”.

Consider VYSFTAKHRYSWFVCNDGVK, for which the amyloid nucleation score entry was “inactive”.

In the case of CRWEVCVVLFLMNCDKNGSC, the amyloid nucleation score result was “inactive”.

For SRVWTISWLNDGVGGRTQAE, the amyloid nucleation score entry is “inactive”.

LFLIGLLGRCDGDFYCIYYT: the amyloid nucleation score is 1.04 ± 0.21.

In the case of WCFCGWMYIISFLSYKKHIM, the amyloid nucleation score entry is “inactive”.

Consider YAPFWS, for which the amyloid nucleation score result was “inactive”.

For WENCKFWRTLPISVHEGHLD, the amyloid nucleation score result was “inactive”.

KTKFVTSLNFTVHFKCWNCD gave an amyloid nucleation score of 1.51 ± 0.097.

As to IMSRMYDDSFADLVCKHAVD, the amyloid nucleation score entry was “inactive”.

Take LGWLVGSGKVNRVRPGSLNS: the amyloid nucleation score result was “inactive”.

With LSYYVS, the amyloid nucleation score result was “inactive”.

As to RRVQKERSLKC, the amyloid nucleation score entry is “inactive”.

With EAYEAQD, the amyloid nucleation score result is “inactive”.

For LVISNIFRPHSVPWIIVENS, the amyloid nucleation score entry is “inactive”.

As to DFIFIQILDVNCRWDRCMYC, the amyloid nucleation score was 0.444 ± 0.16.

Turning to MYGHIYHFRINTLWGVNL, the amyloid nucleation score entry is “inactive”.

KCDEDCYAFDVYLSMGYDVS: the amyloid nucleation score result is “inactive”.

YIYDSLWW: the amyloid nucleation score entry is “inactive”.

The substance NFENMSCSNTVNVLFIEPGA registered an amyloid nucleation score of 1.14 ± 0.096.

On to YIKRTIFTYYYRERMIADSY, for which the amyloid nucleation score result was “inactive”.

Turning to YFRGPF, the amyloid nucleation score entry is “inactive”.

For the substance CYQSE, the amyloid nucleation score entry was “inactive”.

Regarding VFISRKCWRNHNF, the amyloid nucleation score result was “inactive”.

For the substance PLWSRCLYRLSAGGACSVWK, the amyloid nucleation score result was “inactive”.

In the case of GSVSYLNMTVFFSTVLFIYT, the amyloid nucleation score entry is “inactive”.

With YVNECFSVSLICCYMLFYN, the amyloid nucleation score turned out to be 1.52 ± 0.072.

As for SVYPVFPTLFNSSYFSGTFG, the amyloid nucleation score result is “inactive”.

The substance IGLSLGCVFVMDNVLNARN gave an amyloid nucleation score of 1.55 ± 0.076.

For the substance PTNFD, the amyloid nucleation score entry was “inactive”.

The substance NRSIIVIWWNSRSSSNSWVG registered an amyloid nucleation score of 2.1 ± 0.072.

(Values after the supplement of paper PMC12042874.)
